T1: VEGFR-3-Fc (UniProt P35916 25-328)
T1 construct: domain: first three Ig domains; conditioned supernatant of 293T cells; also called VEGFR-3-Fc fusion protein; not shown: Fc fragment of the pIg vector
T1 sequence (looked up): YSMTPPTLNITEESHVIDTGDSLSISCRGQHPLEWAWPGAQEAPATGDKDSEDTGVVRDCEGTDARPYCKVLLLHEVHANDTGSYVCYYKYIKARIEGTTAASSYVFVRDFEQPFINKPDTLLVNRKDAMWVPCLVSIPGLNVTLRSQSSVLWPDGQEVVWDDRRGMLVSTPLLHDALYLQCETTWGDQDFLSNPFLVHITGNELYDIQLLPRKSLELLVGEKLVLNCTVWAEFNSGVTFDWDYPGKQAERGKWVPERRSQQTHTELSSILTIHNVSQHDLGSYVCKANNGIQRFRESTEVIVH


Experiments:
Experiment in all cases: receptor-Fc IP
[1] = target: T1, VEGFR-3-Fc
Method in brief: (§1)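 Binding of ligand from sample supernatant measured by pentahistidine-antibody immunoprecipitation. IP mix: PBS with 1.5% BSA, 0.06% Tween 20, 3 μg/ml heparin and 400 ng/ml fusion protein, added 1:2 to sample supernatant.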

[2] = target: T2, VEGFR-1-Fc (UniProt P17948 27-338)
T2 construct: domain: first three Ig domains; expressed in Drosophila S2 cells, purified on Protein A sepharose; also called VEGFR-1-Fc fusion protein; not shown: Fc fragment from the Signal-pIgPlus vector
T2 sequence (P17948 27-338): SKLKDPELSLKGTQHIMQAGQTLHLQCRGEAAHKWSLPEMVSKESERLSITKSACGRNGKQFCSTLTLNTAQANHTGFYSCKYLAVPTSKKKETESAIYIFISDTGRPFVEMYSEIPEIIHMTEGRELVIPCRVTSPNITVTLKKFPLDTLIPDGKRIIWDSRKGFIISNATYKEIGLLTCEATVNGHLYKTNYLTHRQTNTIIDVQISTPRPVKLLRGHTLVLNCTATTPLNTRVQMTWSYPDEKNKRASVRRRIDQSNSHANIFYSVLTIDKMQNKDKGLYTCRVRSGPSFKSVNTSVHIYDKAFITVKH
Method in brief: as §1

[3] = target: T3, VEGFR-2-Fc (UniProt P35968 20-322)
T3 construct: domain: first 3 Ig domains; conditioned supernatant of 293T cells; also called VEGFR-2-Fc fusion protein; not shown: Fc fragment of the pIg vector
T3 sequence (P35968 20-322): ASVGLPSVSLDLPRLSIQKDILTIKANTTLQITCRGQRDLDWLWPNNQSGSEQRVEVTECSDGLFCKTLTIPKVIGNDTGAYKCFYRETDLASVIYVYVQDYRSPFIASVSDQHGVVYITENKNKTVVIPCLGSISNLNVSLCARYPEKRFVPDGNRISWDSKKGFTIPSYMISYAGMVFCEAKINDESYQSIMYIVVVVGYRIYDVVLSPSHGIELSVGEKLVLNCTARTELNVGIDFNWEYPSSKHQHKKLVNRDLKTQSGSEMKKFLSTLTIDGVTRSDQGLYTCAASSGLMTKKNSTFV
Method in brief: as §1

binding result [1] | binding result [2] | binding result [3] | Binder
no binding | no binding | no binding | 72-7 (ligand) GQNHHEVVKSIDNEWRKTQCMPREVCIDVGKEFGVATNTFFKPPCVSVYRCGGCCNSEGLQCVPTEESNITMQIMRIKPHQGQHIGEMSFANHTSCRCMSKL
no binding | no binding | no binding | 14-13 (ligand) GQNHHEVVKFMDVYQRSYCHPIETLVDIFQEFGVATNTFFKPSCVPLMRCGGCCNDEGLECVPTEESNITMQIMRITVPLSQGPKPVTISFANHTSCRCMSKLD
no binding | no binding | no binding | 14-15 (ligand) GQNHHEVVKFMDVYQRSYCHPIETLVDIFQEFGVATNTFFKPSCVPLMRCGGCCNSEGLQCVPTEESNITMQIMRITVPLSQGPKPVTISFANHTSCRCMSKLD
no binding | no binding | no binding | 33-2 (ligand) GQNHHEVVKSIDNEWRKTQCMPIETLVDIFQEYPDEIEYIFKPPCVSVYRCGGCCNDEGLECMNTSTSYLSKTLFEIKPHQGQHIGEMSFLQHNKCECRPKKD
no binding | no binding | no binding | 13-4 (ligand) GQNHHEVVKFMDVYQRSYCHPIETLVDIFQEYPDEIEYIFKPPCVSVYRCGGCCNSEGLQCMNTSTSYLSKTLFEIKPHQGQHIGEMSFLQHNKCECRPKKD
no binding | no binding | no binding | 23-13 (ligand) AHYNTEILKSIDNEWRKTQCMPREVCIDVGKEYPDEIEYIFKPPCVSVYRCGGCCNDEGLECVPTEESNITMQIMRITVPLSQGPKPVTISFANHTSCRCMSKLD
no binding | no binding | no binding | 23-15 (ligand) AHYNTEILKSIDNEWRKTQCMPREVCIDVGKEYPDEIEYIFKPPCVSVYRCGGCCNSEGLQCVPTEESNITMQIMRITVPLSQGPKPVTISFANHTSCRCMSKLD
no binding | no binding | no binding | 13-14 (ligand) GQNHHEVVKFMDVYQRSYCHPIETLVDIFQEYPDEIEYIFKPPCVSVYRCGGCCNDEGLECMNTSTSYLSKTLFEITVPLSQGPKPVTISFANHTSCRCMSKLD
no binding | no binding | no binding | 23-1 (ligand) AHYNTEILKSIDNEWRKTQCMPREVCIDVGKEYPDEIEYIFKPPCVSVYRCGGCCNDEGLECVPTEESNITMQIMRIKPHQGQHIGEMSFLQHNKCECRPKKD
no binding | no binding | no binding | 23-3 (ligand) AHYNTEILKSIDNEWRKTQCMPREVCIDVGKEYPDEIEYIFKPPCVSVYRCGGCCNSEGLQCVPTEESNITMQIMRIKPHQGQHIGEMSFLQHNKCECRPKKD
no binding | no binding | no binding | 23-7 (ligand) AHYNTEILKSIDNEWRKTQCMPREVCIDVGKEYPDEIEYIFKPPCVSVYRCGGCCNSEGLQCVPTEESNITMQIMRIKPHQGQHIGEMSFANHTSCRCMSKLD
no binding | no binding | no binding | 31-4 (ligand) GQNHHEVVKSIDNEWRKTQCMPIETLVDIFQEYPDEIEYIFKPSCVPLMRCGGCCNDEGLECVPTEESNITMQIMRITVPLSQGPKPVTISFANHTSCRCMSKLD
no binding | no binding | no binding | 31-6 (ligand) GQNHHEVVKSIDNEWRKTQCMPIETLVDIFQEYPDEIEYIFKPSCVPLMRCGGCCNDEGLECMNTSTSYLSKTLFEIKPHQGQHIGEMSFANHTSCRCMSKLD
no binding | no binding | no binding | 24-7 (ligand) AHYNTEILKSIDNEWRKTQCMPREVCIDVGKEFGVATNTFFKPSCVPLMRCGGCCNSEGLQCVPTEESNITMQIMRIKPHQGQHIGEMSFANHTSCRCMSKLD
no binding | no binding | no binding | 72-5 (ligand) GQNHHEVVKSIDNEWRKTQCMPREVCIDVGKEFGVATNTFFKPPCVSVYRCGGCCNDEGLECVPTEESNITMQIMRIKPHQGQHIGEMSFANHTSCRCMSKLD
no binding | no binding | no binding | 54-5 (ligand) AHYNTEILKSIDNEWRKTQCMPIETLVDIFQEFGVATNTFFKPSCVPLMRCGGCCNDEGLECVPTEESNITMQIMRIKPHQGQHIGEMSFANHTSCRCMSKLD
no binding | no binding | no binding | 74-5 (ligand) GQNHHEVVKSIDNEWRKTQCMPREVCIDVGKEFGVATNTFFKPSCVPLMRCGGCCNDEGLECVPTEESNITMQIMRIKPHQGQHIGEMSFANHTSCRCMSKLD
no binding | no binding | no binding | 52-5 (ligand) AHYNTEILKSIDNEWRKTQCMPIETLVDIFQEFGVATNTFFKPPCVSVYRCGGCCNDEGLECVPTEESNITMQIMRIKPHQGQHIGEMSFANHTSCRCMSKLD
no binding | no binding | no binding | 74-7 (ligand) GQNHHEVVKSIDNEWRKTQCMPREVCIDVGKEFGVATNTFFKPSCVPLMRCGGCCNSEGLQCVPTEESNITMQIMRIKPHQGQHIGEMSFANHTSCRCMSKLD
no binding | no binding | no binding | 54-7 (ligand) AHYNTEILKSIDNEWRKTQCMPIETLVDIFQEFGVATNTFFKPSCVPLMRCGGCCNSEGLQCVPTEESNITMQIMRIKPHQGQHIGEMSFANHTSCRCMSKLD

Source: patent US20080058263A1 (published 2008)
